Publication doi:10.1101/481754, “Tumor Protein D54 is a promiscuous Rab effector” (bioRxiv, 2018)

Molecular target: T1, MBP-TPD54-His (human, UniProt O43399 1-206)
T1 construct: human Tumor protein D54 (TPD54/TPD52L2) inserted in the pMalPre-His vector; also called recombinant MBP-TPD54-His; source: E. coli BL21, purified (HisTrap); not shown: MBP, N-terminal, kept; His, C-terminal, kept
Experiment: pull-down; 3 µM GST, GST-Rab1a or GST-Rab6a pre-loaded with 300 µM GppNHp, incubated with 3 µM MBP-TPD54-His 90 min at 20 °C in 25 mM HEPES, 150 mM KCl, 5 mM MgCl2 pH 7.4; glutathione-sepharose beads; Coomassie gel
Conditions: both partners purified

T1 sequence (O43399 whole entry): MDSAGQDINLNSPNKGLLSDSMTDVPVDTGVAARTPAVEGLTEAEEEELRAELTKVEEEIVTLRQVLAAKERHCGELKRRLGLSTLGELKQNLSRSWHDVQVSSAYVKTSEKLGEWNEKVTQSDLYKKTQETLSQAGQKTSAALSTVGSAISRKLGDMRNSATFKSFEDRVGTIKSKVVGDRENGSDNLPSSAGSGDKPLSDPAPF

binding result: binds
B1: GST-Rab1a (natural protein)
chain: not shown
notes: human Rab1a, cut from GFP-Rab1a and inserted into pGEX-6P1; pre-loaded with GDP or GppNHp; source: E. coli BL21, purified (GSTrap); not shown: GST, N-terminal, kept
